From patent US20260022186A1

Biological target: T1, human NT5E expressed on MDA-MB-231 cells (human) (UniProt P21589)
T1 sequence (looked up): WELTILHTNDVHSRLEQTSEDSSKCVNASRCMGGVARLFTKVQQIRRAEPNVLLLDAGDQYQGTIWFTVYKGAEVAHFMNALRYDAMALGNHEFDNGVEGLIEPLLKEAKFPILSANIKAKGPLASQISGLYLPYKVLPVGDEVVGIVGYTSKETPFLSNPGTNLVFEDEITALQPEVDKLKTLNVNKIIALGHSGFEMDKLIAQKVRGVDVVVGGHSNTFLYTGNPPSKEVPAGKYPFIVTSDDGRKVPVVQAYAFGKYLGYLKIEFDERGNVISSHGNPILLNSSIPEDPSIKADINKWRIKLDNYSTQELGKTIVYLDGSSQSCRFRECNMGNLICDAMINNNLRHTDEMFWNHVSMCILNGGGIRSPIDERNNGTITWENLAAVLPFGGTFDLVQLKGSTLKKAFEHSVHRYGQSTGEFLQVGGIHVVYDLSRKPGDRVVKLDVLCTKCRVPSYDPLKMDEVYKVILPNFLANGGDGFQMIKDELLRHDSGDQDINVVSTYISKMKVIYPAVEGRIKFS
Assay: cell-based or functional assay

Substance: BMS986179 IgG (antibody)
- IC50 of inhibition of NT5E on MDA-MB-231 cells, ATP: 1100 pM
- IC50 of inhibition of NT5E on MDA-MB-231 cells, no ATP: 600 pM
